Assay results taken from article PMC9004659.

Target: Recombinant human BAX (wild type) (human) (UniProt Q07812)
Assay: SEC

Substance: Recombinant human BAX (wild type) (from UniProt Q07812-1) (natural protein)
- share of the BAX population shifted toward oligomers: > 70%
